# Data from the nanobody polyreactivity screen of Harvey et al. (2022).
# Experiment: yeast display, Sf9 membrane polyspecificity reagent, FACS + sequencing; frameworks hold sequencing errors
# How it was run: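 Sorting gates, low and high (top ~1%), were placed on anti-HA fluorescence to track expression and on streptavidin fluorescence to track reagent binding. A clone's polyreactivity label is taken from the gate it came out of. The reagent was 10% biotinylated, detergent-solubilized Sf9 membrane, applied for 1 hour at 4 °C to galactose-induced yeast display cells.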
row,Sequence,polyreactivity (PSR sort gate)
1,QVQLVESGGGLVQAGGSLRLSCAASGFIFSWYAMGWYRQAPGKERELVAAISYSGSNTYYADSVKGRFTISRDNAKNTVYLQMNSLKPEDTAVYYCAATLGSRWAIYDYWGQGTQVTVSS,high polyreactivity
2,QVQLVESGGGLVQAGGSLRLSCAASGFIFSWYAMGWYRQAPGKERELVATISSSGGRTHYADSVKGRFTISRDNAKNTVYLQMNSLKPEDTAVYYCAAQPFSYFTTVYYWGQGTQVTVSS,high polyreactivity
3,QVQLVESGGGLVQAGGSLRLSCAASGFIFSYCAKGRYRQAPGKERELVAAISRSGGRTYYADSVKGRYTISRDNAKNTVYLQMNSLKPEDTAVYYCAAPVSLRPIYDYWGQGTQVTVSS,high polyreactivity
4,QVQLVESGGGLVQAGGSLRLSCAASGFIFSYNAMGSYRQAPGKERELVAAISRRGGSTYYADSVKGRFTISRDNAKNTVYLQMNSLKPEDTAVYYCAAKSYLDSSGTFNYWGQGTQVTVSS,high polyreactivity
5,QVQLVESGGGLVQAGGSLRLSCAASGFIFSYYAMGWYRPAPGKERELVAAITDSGGSTYYADSVKGRFTISRDNAKNSVYLQMNSLKPEYTAVYYCATEIEQTAEYDYLGQGTQVTVSS,low polyreactivity
6,QVQLVESGGGLVQAGGSLRLSCAASGFIFSYYAMGWYRQAPGKERELVAAINYSGGRTYYADSVKGRFTISRDYAKNTVYLQMNSLKPEDTAVYYCNAVTFGRRAFDYWGQGTQVTVSS,high polyreactivity
7,QVQLVESGGGLVQAGGSLRLSCAASGFIFSYYAMGWYRQAPGKERELVAAISSSGGTTYADSVKGRFTISRDNAKNTVYLQMNSLKPEDTAVYYCARVQYWFYKPMYYWGQGTQVNVSS,high polyreactivity
8,QVQLVESGGGLVQAGGSLRLSCAASGFIFSYYAMGWYRQAPGKERELVATITSGGSTNYADSVKGRFTISRDNAKNTVYLQMNSLKPEVTAVNYCATRKYRVPRSYDWGQGTQVTVTS,high polyreactivity
9,QVQLVESGGGLVQAGGSLRLSCAASGFIFSYYTMGWYRQAPGKESELVAAISYSGGSTDYADSVKWRFTISRDNAKNTVYLQMNSLKPEDTAVYYCNADYSFWAEPYWEYGYDYWGQGTQVTVSS,low polyreactivity
10,QVQLVESGGGLVQAGGSLRLSCAASGFIFTDNAMGWYRQAPGKERELVAAISKNGGSTYYADSVKGRFTISRDNAKNTVYLQMNSLKPDDTAVYYCNAVRRDSGTYRSPDTTRYDYWGQVTQVTVSS,high polyreactivity
11,QVQLVESGGGLVQAGGSLRLSCAASGFIFTDYAMGWYRQAPGKERELVATISWSGSSTYYADSVKGRFTISRDNAKNTVYLQMNSLKPEDTAVYYCAAEFWYTYPYLVDYWGQGTKVTVSS,low polyreactivity
12,QVQLVESGGGLVQAGGSLRLSCAASGFIFTFYAMGWYRQAPGKEREFVASIDWGDGSTYYADSVKGRFTISRDNAKNTVYLQMNSLKPEDTAVYYCAHDYDGYVWDTEYDYWGQGTQVTVSS,low polyreactivity
13,QVQLVESGGGLVQAGGSLRLSCAASGFIFTGNVMGWYRQAPGKERELVAAITSSGGSTYYADSVKGRFTISRDNAKNTVYLQMNSLKPEDTAVYYCATRYGGRYYWGQGTQVTVSS,high polyreactivity
14,QVQLVESGGGLVQAGGSLRLSCAASGFIFTGYAMGWYRQAPGKERELVAAITRNGGSTYYADSVKGRFTISRDNAKNSVYLQMNSLKPEDTAVYYCAARGNRVSPEYYYWGQGTQVTVSS,high polyreactivity
15,QVQLVESGGGLVQAGGSLRLSCAASGFIFTGYTMGWYRQAPGKERELVAAISYRGGSTYYSDSVKGRFTISRDNAKNTVYLQMNSLKPEDTEVYFCAAESIYFYEYDYWGQGTQVTVSS,high polyreactivity
16,QVQLVESGGGLVQAGGSLRLSCAASGFIFTIYAMGWYRQAPRKERELVAAITWNGGRTYYADSVKGRFTISRDNAKNTVYLQMISLKPEDTAVYYCAARYGRAYDYWGQGTQVTVSS,high polyreactivity
17,QVQLVESGGGLVQAGGSLRLSCAASGFIFTKNTMGWYRQAPGKEREWVAAISRGGSTYYADSVKGRFTISRDNAKNTVYLQMNSLKPEDTAVYYCAALYNSTKYGVYTNGPQAEYDYWGQGTQVTVSS,high polyreactivity
18,QVQLVESGGGLVQAGGSLRLSCAASGFIFTLYAMGWYRQAPGKERELVASIRGSGGNTYYADSVKGRFTISRDNAKNTVYLQMNSLKPEDTAVYYCAARTYRRPYYSWGQGTQVTVSS,high polyreactivity
19,QVQLVESGGGLVQAGGSLRLSCAASGFIFTPYAKGWYRQAPGKERELVAAISSGGSTYADSVKGRFTISRDNAKNTVYLQMNSLKPEDTAVYYCAAYYTGYSTTYYYWGQGTQVSVSS,low polyreactivity
20,QVQLVESGGGLVQAGGSLRLSCAASGFIFTPYAMGWYRQAPGKERELVAAISRSAGSTYYADSVKGRFTISRDNAKNTVYLQMNSLKPEDTAVYYCAADSLTYIAYDYWGQGTQVTVSS,high polyreactivity

row,Sequence,polyreactivity (PSR sort gate)
1,QVQLVESGGGLVQAGGSLRLSCAASGFIFTQYTMGWYRQAPGKERELVAAISFSDSSTYYADSVKGRFTISRDNAKNTVYLEMNSLKPEDTAVYFCAADYSVTLRIGGYYWFYAFDYWGQGTQVTVSS,low polyreactivity
2,QVQLVESGGGLVQAGGSLRLSCAASGFIFTRYAMGWYRPAPGKERELVAAISASGGSTYYADSVKGRFTISRDNAKNTVYLQMNSLKPEDTAVYYCAAGGSWFRYPPRMDYWGQGTQVTVSS,high polyreactivity
3,QVQLVESGGGLVQAGGSLRLSCAASGFIFTRYAMGWYRQAPGKERELVAAISWIGTSTYYADSVKGRFTISRDNAKNTVYLQMNSLKPEDTAVYYCNALRYSTGRPGFYLGYDYWGQGTQVTVSS,high polyreactivity
4,QVQLVESGGGLVQAGGSLRLSCAASGFIFTRYVMGWYRQAAGKERELVAAISRIGASTYYADSVKGRFTISRDNAKNNFYLQMNCLNPEATAVYYCKVVSGGYCEYDYWGHGTQVTVSS,high polyreactivity
5,QVQLVESGGGLVQAGGSLRLSCAASGFIFTTNAMGWYRQAPGKERELVAAITRSGGSTYADSVKGRFTISRDNAKNTVYLQMNSLKPEDTAVYYCNADWAGVYTSYEYDYWGQGTQVTVSS,low polyreactivity
6,QVQLVESGGGLVQAGGSLRLSCAASGFIFTWYAMGWYRQAPGKEREFVAGISRSGGRTYYADSLKGRFTISRDNAKNTVYLQMNSQKPEDTAVYDCNAVLVGYRPYREFDHWGQGTQVTVSS,high polyreactivity
7,QVQLVESGGGLVQAGGSLRLSCAASGFIFTYYAMGWYRQAPGKERELVAAITSGGSTNYADSVKGRFTISRDNAKITVYLQMNSLKPEDTAVYYCASRIYYGRFWYDYWGQGTQVTVSS,high polyreactivity
8,QVQLVESGGGLVQAGGSLRLSCAASGFIFTYYAMGWYRQAPGKERELVAVISWSGGTTYYADSVKGRFTISRDNAKNTVYLQMNSLKPEDTAVYYCNADRSLLYSRKIEYDYWGQGTQVTVSS,low polyreactivity
9,QVQLVESGGGLVQAGGSLRLSCAASGFIFVDYAMGWYRQAPGKERELVAAISSSGSTTYADSVKGRFTISRDNAKNIVYLKMNSLKPEDTAVYYCAAGLPRVLKDATFDYWGQGTQVTVSS,low polyreactivity
10,QVQLVESGGGLVQAGGSLRLSCAASGFIFVFNTMGWYRQAPGKERELVAAISVSGDSTYADSVKGRFTISRDNAKNTVYLQMNSLKPEDTAVYYCNAGSTELGWTWELDYWGQGTQVNVSS,high polyreactivity
11,QVQLVESGGGLVQAGGSLRLSCAASGFIFVIYGMGWYRQAPGKERELVAAISRGGSTYADSVKGRFTISRDNAKNTVYLQMNSLKPEDTAVYYCNARLYKRGGFGYYYWGQGTQVTVSS,high polyreactivity
12,QVQLVESGGGLVQAGGSLRLSCAASGFIFVLYTMGWYRQAPGKEREMVASITQSGGSTYYADSVKGRFTISRDNAKNTVYLQMNSLKPEDTAVYYCAAVWAHEWWELDYWGQGTQVTVSS,low polyreactivity
13,QVQLVESGGGLVQAGGSLRLSCAASGFIFVPYTMGWYRQAPGKERELVATINSNGGSTYYADSVKGRFTISRDNAKNTVYLQMNSLKPEDTAVYYCAAYYRWIGGRYTPYYYWGQGTQVTVSS,high polyreactivity
14,QVQLVESGGGLVQAGGSLRLSCAASGFIFVQNTMGWYRQAPGKERELVAAISRGTGRTYYADSVKGRFTISRDNAKNTVYLQMNSLKPDDTAVYYCNVVYPQRYRSREDDYWGQGTQVTVSS,high polyreactivity
15,QVQLVESGGGLVQAGGSLRLSCAASGFIFVRYAMGWYRQAPGKERELVASISGRGSSTYYADSVKGRFTISRDNAKNTVYLQMNSLKPEDTAVYYCAADYYRRIGGYPYDYDYWGQGTQVTVSS,high polyreactivity
16,QVQLVESGGGLVQAGGSLRLSCAASGFIFVRYARGWNRQAPGKERELVASITRSGGSTYYADSVKGRFTISRDNAKNTVYLQMNSLKPEDTAVYYCAASYYRSRGSTYGYWGQGTQVTVSS,high polyreactivity
17,QVQLVESGGGLVQAGGSLRLSCAASGFIFVYNAMGWYRPAPGKERELVAAIDYGGGSTTYADSVKGRFTISRDNAKNTVYLQMNSLKPEDTAVYYCAAYYRYLDDIYEYEYWGQGTQVTVSS,low polyreactivity
18,QVQLVESGGGLVQAGGSLRLSCAASGFIFVYNAMGWYRQAPGKEREFVASITWSGGRTYYADSVKGRFTISRDNAKNTVYLQMNSLKPEDTAVYYCATKYPNSQGRRYDYWGQGTQVTVSS,low polyreactivity
19,QVQLVESGGGLVQAGGSLRLSCAASGFIFVYNSMGWSRPAPGKEREFVASITWSGGRTYYADSVKGRFTISRDNAKNTVYLQMNSLKREVTAVYFCATKYPNSQVRRYDYWGQGTQVTVSS,low polyreactivity
20,QVQLVESGGGLVQAGGSLRLSCAASGFIFVYYAMGWYRQAPGKERELVAAISGHGGRTYYADSVKGRFTISRDNAKNTVYLQMNSLKPEDTAVYYCAALLYWRGYGYNYWGQGTQVTVSS,high polyreactivity
